Source: patent publication US20230002480A1

How the values were obtained:
Assay in all cases: cell-based or functional assay
[1] = target: HIV-1 Env of pseudovirus 211-9 (HIV-1)
[2] = target: HIV-1 Env of pseudovirus 3365.v2.c2 (HIV-1)
[3] = target: HIV-1 Env of pseudovirus ZM247v1(Rev-) (HIV-1)
[4] = target: HIV-1 Env of pseudovirus AC10.0.29 (HIV-1)
[5] = target: HIV-1 Env of pseudovirus CNE19 (HIV-1)
[6] = target: HIV-1 Env of pseudovirus C3347.c11 (HIV-1)
[7] = target: HIV-1 Env of pseudovirus TRJO4551.58 (HIV-1)
[8] = target: HIV-1 Env of pseudovirus CNE21 (HIV-1)
[9] = target: HIV-1 Env of pseudovirus 263-8 (HIV-1)
[10] = target: HIV-1 Env of pseudovirus 89-F1_2_25 (HIV-1)
[11] = target: HIV-1 Env of pseudovirus ZM135M.PL10a (HIV-1)
[12] = target: HIV-1 Env of pseudovirus BJOX010000.06.2 (HIV-1)
[13] = target: HIV-1 Env of pseudovirus PVO.4 (HIV-1)
[14] = target: HIV-1 Env of pseudovirus SC422661.8 (HIV-1)
[15] = target: HIV-1 Env of pseudovirus 231965.c01 (HIV-1)
[16] = target: HIV-1 Env of pseudovirus 6480.v4.c25 (HIV-1)
[17] = target: HIV-1 Env of pseudovirus T255-34 (HIV-1)
[18] = target: HIV-1 Env of pseudovirus C1080.c03 (HIV-1)
[19] = target: HIV-1 Env of pseudovirus Q769.d22 (HIV-1)
[20] = target: HIV-1 Env of pseudovirus 6952.v1.c20 (HIV-1)
[21] = target: HIV-1 Env of pseudovirus 6545.v4.c1 (HIV-1)
[22] = target: HIV-1 Env of pseudovirus 246F C1G (HIV-1)
[23] = target: HIV-1 Env of pseudovirus 3301.v1.c24 (HIV-1)
[24] = target: HIV-1 Env of pseudovirus ZM197M.PB7 (HIV-1)
[25] = target: HIV-1 Env of pseudovirus BJOX025000.01.1 (HIV-1)
[26] = target: HIV-1 Env of pseudovirus X1632_S2_B10 (HIV-1)
[27] = target: HIV-1 Env of pseudovirus 620345.c01 (HIV-1)
[28] = target: HIV-1 Env of pseudovirus P0402_c2_11 (HIV-1)
[29] = target: HIV-1 Env of pseudovirus HIV-16055-2.3 (HIV-1)
[30] = target: HIV-1 Env of pseudovirus CNE52 (HIV-1)
[31] = target: HIV-1 Env of pseudovirus T257-31 (HIV-1)
[32] = target: HIV-1 Env of pseudovirus Ce1086_B2 (HIV-1)
[33] = target: HIV-1 Env of pseudovirus 3103.v3.c10 (HIV-1)
[34] = target: HIV-1 Env of pseudovirus HIV-0013095-2.11 (HIV-1)
[35] = target: HIV-1 Env of pseudovirus 9004SS_A3_4 (HIV-1)
[36] = target: HIV-1 Env of pseudovirus THRO4156.18 (HIV-1)
[37] = target: HIV-1 Env of pseudovirus SC05_8C11_2344 (HIV-1)

N49P6 (antibody) gave an IC50 [1] of 8.49 µg/mL, an IC80 [1] of 27.7 µg/mL and an MPI [1] of 93. For the same substance, the IC50 [2] was 0.129 µg/mL, the IC80 [2] was 0.347 µg/mL and the MPI [2] was 100. For the same substance, the IC50 [3] was 0.063 µg/mL, the IC80 [3] was 0.17 µg/mL and the MPI [3] was 100. The IC50 [4] was 32.3 µg/mL, the IC80 [4] was greater than 50 µg/mL and the MPI [4] was 67. For the same substance, the IC50 [5] was 0.044 µg/mL, the IC80 [5] was 0.156 µg/mL and the MPI [5] was 100. For the same substance, the IC50 [6] was 0.08 µg/mL, the IC80 [6] was 0.266 µg/mL and the MPI [6] was 100. It also gave an IC50 [7] of 0.255 µg/mL, an IC80 [7] of 0.874 µg/mL and an MPI [7] of 100. It also gave an IC50 [8] of 0.832 µg/mL, an IC80 [8] of 6.52 µg/mL and an MPI [8] of 99. It also gave an IC50 [9] of 0.116 µg/mL, an IC80 [9] of 0.438 µg/mL and an MPI [9] of 100. The IC50 [10] was 33.6 µg/mL, the IC80 [10] was greater than 50 µg/mL and the MPI [10] was 61. It also gave an IC50 [11] of 0.494 µg/mL, an IC80 [11] of 1.77 µg/mL and an MPI [11] of 99. For the same substance, the IC50 [12] was 0.681 µg/mL, the IC80 [12] was 3.53 µg/mL and the MPI [12] was 100. The IC50 [13] was 0.128 µg/mL, the IC80 [13] was 0.357 µg/mL and the MPI [13] was 100. The IC50 [14] was 0.129 µg/mL, the IC80 [14] was 0.36 µg/mL and the MPI [14] was 100. It also gave an IC50 [15] of 9.24 µg/mL, an IC80 [15] of 39.4 µg/mL and an MPI [15] of 87. For the same substance, the IC50 [16] was 0.089 µg/mL, the IC80 [16] was 0.427 µg/mL and the MPI [16] was 100. For the same substance, the IC50 [17] was 0.076 µg/mL, the IC80 [17] was 0.392 µg/mL and the MPI [17] was 100. For the same substance, the IC50 [18] was 0.181 µg/mL, the IC80 [18] was 0.661 µg/mL and the MPI [18] was 100. The IC50 [19] was 0.072 µg/mL, the IC80 [19] was 0.318 µg/mL and the MPI [19] was 100. The IC50 [20] was 16.9 µg/mL, the IC80 [20] was greater than 50 µg/mL and the MPI [20] was 78. For the same substance, the IC50 [21] was 24.5 µg/mL, the IC80 [21] was greater than 50 µg/mL and the MPI [21] was 76. It also gave an IC50 [22] of 0.513 µg/mL, an IC80 [22] of 2.51 µg/mL and an MPI [22] of 99. It also gave an IC50 [23] of 0.054 µg/mL, an IC80 [23] of 0.149 µg/mL and an MPI [23] of 100. It also gave an IC50 [24] of 3 µg/mL, an IC80 [24] of 12.4 µg/mL and an MPI [24] of 98. The IC50 [25] was 14.9 µg/mL, the IC80 [25] was greater than 50 µg/mL and the MPI [25] was 78. It also gave an IC50 [26] of 23.1 µg/mL, an IC80 [26] greater than 50 µg/mL and an MPI [26] of 69. The IC50 [27] was 22.9 µg/mL, the IC80 [27] was greater than 50 µg/mL and the MPI [27] was 70. For the same substance, the IC50 [28] was 3.54 µg/mL, the IC80 [28] was 19 µg/mL and the MPI [28] was 99. It also gave an IC50 [29] of 0.117 µg/mL, an IC80 [29] of 0.586 µg/mL and an MPI [29] of 100. For the same substance, the IC50 [30] was 0.028 µg/mL, the IC80 [30] was 0.095 µg/mL and the MPI [30] was 100. The IC50 [31] was 0.147 µg/mL, the IC80 [31] was 0.535 µg/mL and the MPI [31] was 100. The IC50 [32] was 0.581 µg/mL, the IC80 [32] was 4.09 µg/mL and the MPI [32] was 98. For the same substance, the IC50 [33] was 0.582 µg/mL, the IC80 [33] was 1.57 µg/mL and the MPI [33] was 100. For the same substance, the IC50 [34] was 0.971 µg/mL, the IC80 [34] was 8.04 µg/mL and the MPI [34] was 96. For the same substance, the IC50 [35] was 0.181 µg/mL, the IC80 [35] was 0.817 µg/mL and the MPI [35] was 100. It also gave an IC50 [36] of 12.5 µg/mL, an IC80 [36] of 38.4 µg/mL and an MPI [36] of 89. It also gave an IC50 [37] of 0.266 µg/mL, an IC80 [37] of 0.911 µg/mL and an MPI [37] of 100.

With NIH 45-46 (antibody) the IC50, titer in TZM.bl cells [1] was greater than 50 µg/mL, the IC80, titer in TZM.bl cells [1] was greater than 50 µg/mL and the neutralization IC50 [2] was 0.11 µg/mL. For the same substance, the neutralization IC80 [2] was 0.11 µg/mL, the neutralization IC50 [3] was 1.64 µg/mL and the neutralization IC80 [3] was greater than 50 µg/mL. The neutralization IC50 [4] was 0.42 µg/mL, the neutralization IC80 [4] was 1.49 µg/mL and the neutralization IC50 [5] was 0.07 µg/mL. It also gave a neutralization IC80 [5] of 0.37 µg/mL, an IC50, titer in TZM.bl cells [6] of 0.03 µg/mL and an IC80, titer in TZM.bl cells [6] of 0.18 µg/mL. The neutralization IC50 [7] was 0.01 µg/mL, the neutralization IC80 [7] was 0.05 µg/mL and the neutralization IC50 [8] was 7.53 µg/mL. For the same substance, the neutralization IC80 [8] was greater than 50 µg/mL, the neutralization IC50 [9] was 0.05 µg/mL and the neutralization IC80 [9] was 0.1 µg/mL. For the same substance, the IC50, titer in TZM.bl cells [10] was greater than 50 µg/mL, the IC80, titer in TZM.bl cells [10] was greater than 50 µg/mL and the neutralization IC50 [11] was 0.36 µg/mL. It also gave a neutralization IC80 [11] of 3.11 µg/mL, an IC50, titer in TZM.bl cells [12] of 0.87 µg/mL and an IC80, titer in TZM.bl cells [12] of 6.37 µg/mL. For the same substance, the neutralization IC50 [13] was 0.17 µg/mL, the neutralization IC80 [13] was 0.47 µg/mL and the neutralization IC50 [14] was 0.01 µg/mL. The neutralization IC80 [14] was 0.07 µg/mL, the IC50, titer in TZM.bl cells [15] was 0.1 µg/mL and the IC80, titer in TZM.bl cells [15] was 0.1 µg/mL. The IC50, titer in TZM.bl cells [16] was 0.02 µg/mL, the IC80, titer in TZM.bl cells [16] was 0.08 µg/mL and the IC50, titer in TZM.bl cells [17] was 0.23 µg/mL. It also gave an IC80, titer in TZM.bl cells [17] of 2.38 µg/mL, an IC50, titer in TZM.bl cells [18] of 1.79 µg/mL and an IC80, titer in TZM.bl cells [18] of 18 µg/mL. The neutralization IC50 [19] was 0.01 µg/mL, the neutralization IC80 [19] was 0.04 µg/mL and the IC50, titer in TZM.bl cells [20] was 0.02 µg/mL. The IC80, titer in TZM.bl cells [20] was 0.07 µg/mL, the IC50, titer in TZM.bl cells [21] was greater than 50 µg/mL and the IC80, titer in TZM.bl cells [21] was greater than 50 µg/mL. It also gave a neutralization IC50 [22] greater than 50 µg/mL, a neutralization IC80 [22] greater than 50 µg/mL and an IC50, titer in TZM.bl cells [23] of 0.01 µg/mL. It also gave an IC80, titer in TZM.bl cells [23] of 0.03 µg/mL, a neutralization IC50 [24] of 0.14 µg/mL and a neutralization IC80 [24] of 0.64 µg/mL. It also gave an IC50, titer in TZM.bl cells [25] of 0.18 µg/mL, an IC80, titer in TZM.bl cells [25] of 10 µg/mL and an IC50, titer in TZM.bl cells [26] of 0.07 µg/mL. For the same substance, the IC80, titer in TZM.bl cells [26] was greater than 50 µg/mL, the IC50, titer in TZM.bl cells [27] was greater than 30 µg/mL and the IC80, titer in TZM.bl cells [27] was greater than 30 µg/mL. For the same substance, the IC50, titer in TZM.bl cells [28] was 0.06 µg/mL, the IC80, titer in TZM.bl cells [28] was 0.26 µg/mL and the neutralization IC50 [29] was 0.02 µg/mL. It also gave a neutralization IC80 [29] of 0.06 µg/mL, a neutralization IC50 [30] of 0.03 µg/mL and a neutralization IC80 [30] of 0.12 µg/mL. For the same substance, the neutralization IC50 [31] was 0.23 µg/mL, the neutralization IC80 [31] was 1.11 µg/mL and the neutralization IC50 [32] was 0.04 µg/mL. For the same substance, the neutralization IC80 [32] was 0.28 µg/mL, the IC50, titer in TZM.bl cells [33] was 1.66 µg/mL and the IC80, titer in TZM.bl cells [33] was 6.57 µg/mL. For the same substance, the neutralization IC50 [34] was 0.01 µg/mL, the neutralization IC80 [34] was 0.03 µg/mL and the neutralization IC50 [35] was 0.18 µg/mL. For the same substance, the neutralization IC80 [35] was 0.65 µg/mL, the neutralization IC50 [36] was 1.59 µg/mL and the neutralization IC80 [36] was 6.02 µg/mL. The neutralization IC50 [37] was 0.14 µg/mL and the neutralization IC80 [37] was 0.38 µg/mL.
